{"source": "patent US11484554B2", "about": "“Pancreatic cells for treating diabetes and methods of generating the same” (Seraxis, Inc., priority 2018, dated 2022)", "type_in_all_cases": "cell-based, human", "key": {"SR1423 cells [1]": {"tested_on": "SR1423 cells", "assay": "Glucagon added to the culture media during differentiation", "description": "A second batch of SR1423 cells were seeded at 6.3×10^4 as described above and allowed to grow for 18-24 hours. […]"}, "SR1423 cells [2]": {"tested_on": "SR1423 cells", "assay": "Impact of KGF at earlier stages of differentiation, SR1423", "conditions": "KGF at earlier stages of differentiation (early endoderm)", "description": "Differentiation: A first batch of SR1423 cells were seeded at 2.3×10^4 cells/cm^2 and allowed to grow for 18-24 hours. Cells were then washed with dPBS (—Mg^2+/—Ca^2+) and medium was changed following a 28 day schedule comprised of 6 media formulation as follows: Days 1, 2, 3: DMEM/F-12 medium (Life Technologies #10565018), 0.2% HSA, 1XB27 supplement (Life Technologies #A1486701), 100 ng/ml Activin A and 1 uM Wortmannin; Days 4, 5, 6, 7: DMEM (Life Technologies #10567014), 0.2% HSA, 1XB27 supplement, 4 uM Retinoic Acid, 50 ng/ml KGF, 50 ng/ml Noggin, 0.25 uM Cyclopamine KAAD; Days 8, 10: DMEM, 0.2% HSA, 1XB27 supplement, 50 ng/ml KGF, 50 ng/ml Noggin, 50 ng/ml EGF; Days 12, 14: DMEM, 0.2% HSA, 1XB27 supplement, 50 ng/ml Noggin, 50 ng/ml EGF, 1 uM γ-secretase inhibitor XXI, 10 uM Alk5i II, 1 uM T3; Days 16, 18: DMEM, 0.2% HSA, 1XB27 supplement, 10 uM Alk5i II, 1 uM T3, 100 nM Retinoic Acid; Days 20, 22, 24, 26, 28: CMRL (Life Technologies #11530037), 0.2% HSA, 1× B27 supplement, 1× glutamax (Life Technologies # 35050061), 10 uM Alk5i II, 1 uM T3, 10 mM Nicotinamide, 50 ng/ml IGF-I, 10 ng/ml BMP4. For differentiations with the addition of a second stage employing KGF, medium on days 4, 5, 6 with DMEM, 0.2% BSA, 1XB27 supplement, and 50 ng/ml KGF was inserted into the schedule shifting the remaining stages three days later. […]"}, "[3]": {"tested_on": "embryonic stem cell line BGO1V", "assay": "Impact of KGF at earlier stages of differentiation, BGO1V"}}, "note": "Entries after “also recorded” stand apart in the source; their conditions may differ."}
{"molecule": "glucagon: peptide hormone added to the sixth differentiation medium", "values": [{"measurement": "amount of cells that co-express insulin and glucagon", "setting": "SR1423 cells [1]", "value": "reducing the amount of cells that co-express insulin and glucagon; also recorded: reduces the amount of cells that co-express insulin and glucagon"}]}
{"molecule": "KGF: keratinocyte growth factor used as differentiation factor in culture medium (protein, UniProt P21781 32-194, looked up) Fibroblast growth factor 7: CNDMTPEQMATNVNCSSPERHTRSYDYMEGGDIRVRRLFCRTQWYLRIDKRGKVKGTQEMKNNYNIMEIRTVAVGIVAIKGVESEFYLAMNKEGKLYAKKECNEDCNFKELILENHYNTYASAKWTHNGGEMFVALNQKGIPVRGKKTKKEQKTAHFLPMAIT", "values": [{"measurement": "production of pancreatic and insulin-producing cells", "setting": "SR1423 cells [2]", "value": "marked reduction"}, {"measurement": "production of pancreatic and insulin-producing cells", "setting": "[3]", "value": "matching results"}]}
